From patent US20040172681

Test system: FasA from Brevibacterium ammoniagenes (multifunctional fatty acid synthase)
Sequence (chain, as listed by the source): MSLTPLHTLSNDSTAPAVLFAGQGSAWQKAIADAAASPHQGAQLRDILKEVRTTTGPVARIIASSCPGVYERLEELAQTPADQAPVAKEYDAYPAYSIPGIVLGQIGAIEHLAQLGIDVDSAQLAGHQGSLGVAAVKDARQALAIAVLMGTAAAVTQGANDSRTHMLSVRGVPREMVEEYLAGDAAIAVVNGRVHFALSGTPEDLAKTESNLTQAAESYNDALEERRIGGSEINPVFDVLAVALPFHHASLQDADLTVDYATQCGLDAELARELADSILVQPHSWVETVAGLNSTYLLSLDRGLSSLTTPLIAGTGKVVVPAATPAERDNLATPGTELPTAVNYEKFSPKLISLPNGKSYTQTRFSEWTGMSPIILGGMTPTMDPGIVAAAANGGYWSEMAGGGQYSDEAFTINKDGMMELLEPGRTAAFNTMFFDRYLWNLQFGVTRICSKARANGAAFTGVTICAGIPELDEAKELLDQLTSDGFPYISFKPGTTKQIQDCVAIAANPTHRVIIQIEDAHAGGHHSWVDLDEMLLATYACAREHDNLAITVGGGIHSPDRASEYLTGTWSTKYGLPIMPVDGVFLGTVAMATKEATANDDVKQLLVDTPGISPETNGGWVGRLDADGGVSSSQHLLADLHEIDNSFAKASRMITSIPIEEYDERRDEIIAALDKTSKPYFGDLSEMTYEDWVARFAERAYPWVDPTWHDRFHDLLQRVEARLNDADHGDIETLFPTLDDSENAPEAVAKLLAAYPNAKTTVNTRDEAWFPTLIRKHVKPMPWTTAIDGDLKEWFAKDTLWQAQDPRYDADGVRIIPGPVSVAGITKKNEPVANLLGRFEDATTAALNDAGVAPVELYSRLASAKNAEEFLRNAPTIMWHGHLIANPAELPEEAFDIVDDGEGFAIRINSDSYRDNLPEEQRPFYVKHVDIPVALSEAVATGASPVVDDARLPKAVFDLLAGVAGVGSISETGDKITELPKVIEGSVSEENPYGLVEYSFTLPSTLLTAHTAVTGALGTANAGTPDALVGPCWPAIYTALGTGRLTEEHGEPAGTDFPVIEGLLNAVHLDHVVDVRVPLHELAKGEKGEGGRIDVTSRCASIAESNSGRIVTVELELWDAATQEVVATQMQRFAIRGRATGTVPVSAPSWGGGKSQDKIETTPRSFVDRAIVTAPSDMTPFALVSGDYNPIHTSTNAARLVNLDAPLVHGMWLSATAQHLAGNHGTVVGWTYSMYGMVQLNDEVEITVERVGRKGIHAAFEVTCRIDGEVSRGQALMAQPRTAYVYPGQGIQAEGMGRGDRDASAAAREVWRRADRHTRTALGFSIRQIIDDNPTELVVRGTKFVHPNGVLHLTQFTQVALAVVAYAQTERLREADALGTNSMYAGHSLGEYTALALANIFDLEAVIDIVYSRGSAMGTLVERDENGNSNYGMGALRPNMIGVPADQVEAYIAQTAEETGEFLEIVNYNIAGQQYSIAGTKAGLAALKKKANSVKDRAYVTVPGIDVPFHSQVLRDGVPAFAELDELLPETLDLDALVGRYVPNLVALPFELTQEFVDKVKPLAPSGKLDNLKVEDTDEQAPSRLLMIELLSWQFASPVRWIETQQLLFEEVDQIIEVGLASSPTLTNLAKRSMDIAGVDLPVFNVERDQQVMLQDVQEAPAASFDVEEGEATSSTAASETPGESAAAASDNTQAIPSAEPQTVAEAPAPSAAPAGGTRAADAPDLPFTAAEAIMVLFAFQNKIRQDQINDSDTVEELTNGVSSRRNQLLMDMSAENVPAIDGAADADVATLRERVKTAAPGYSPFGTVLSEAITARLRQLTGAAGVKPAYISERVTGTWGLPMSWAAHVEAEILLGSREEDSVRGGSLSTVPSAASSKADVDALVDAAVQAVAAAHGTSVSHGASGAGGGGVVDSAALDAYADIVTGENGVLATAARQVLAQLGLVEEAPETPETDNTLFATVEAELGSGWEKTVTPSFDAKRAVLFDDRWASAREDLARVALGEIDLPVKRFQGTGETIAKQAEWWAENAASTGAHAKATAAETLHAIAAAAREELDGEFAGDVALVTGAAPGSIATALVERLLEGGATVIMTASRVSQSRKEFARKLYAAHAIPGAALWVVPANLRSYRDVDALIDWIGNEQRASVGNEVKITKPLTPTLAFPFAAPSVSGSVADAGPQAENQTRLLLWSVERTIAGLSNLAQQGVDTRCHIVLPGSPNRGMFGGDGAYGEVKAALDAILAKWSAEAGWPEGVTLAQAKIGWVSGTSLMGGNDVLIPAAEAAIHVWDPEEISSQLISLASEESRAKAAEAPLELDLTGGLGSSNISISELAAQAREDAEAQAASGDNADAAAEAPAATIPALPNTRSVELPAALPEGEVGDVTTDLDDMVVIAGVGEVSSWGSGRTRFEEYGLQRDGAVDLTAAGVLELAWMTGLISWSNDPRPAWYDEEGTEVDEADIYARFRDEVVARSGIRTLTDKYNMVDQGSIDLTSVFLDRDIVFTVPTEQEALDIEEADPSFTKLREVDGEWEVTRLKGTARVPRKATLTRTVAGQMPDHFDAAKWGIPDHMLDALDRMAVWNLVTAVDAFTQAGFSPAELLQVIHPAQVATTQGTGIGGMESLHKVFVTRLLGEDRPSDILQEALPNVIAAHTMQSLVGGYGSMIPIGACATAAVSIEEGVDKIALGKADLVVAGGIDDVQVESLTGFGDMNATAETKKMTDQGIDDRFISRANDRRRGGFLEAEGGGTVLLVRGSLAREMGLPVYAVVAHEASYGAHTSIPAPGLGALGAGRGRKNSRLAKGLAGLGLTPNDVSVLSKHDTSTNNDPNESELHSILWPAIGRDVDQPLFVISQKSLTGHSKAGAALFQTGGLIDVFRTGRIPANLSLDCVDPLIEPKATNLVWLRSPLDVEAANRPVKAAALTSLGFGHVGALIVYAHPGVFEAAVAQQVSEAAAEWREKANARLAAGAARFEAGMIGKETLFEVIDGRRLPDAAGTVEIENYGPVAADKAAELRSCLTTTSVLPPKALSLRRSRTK

B1: phosphopantetheine:protein transferase (PPT1) enzyme from B. ammoniagenes, expressed in E. coli as a lacZ fusion protein (enzyme, part only; not given: N-terminal lacZ fusion residues)
chain, part: MLDNREAMTVGVDLVHIPGFAEQLSRPGSTFEQVFSPLERRHAQTRRDAAADATNSSLAGSRTEHLAGRWAAKEAFIKAWSQAIYGKPPVIEPDLVNFAEIEVLPDRWGRVALQLKGEVAAKLQESIDVELALSISHDGDYATAQCLLRYQR
  fasA activity (radiochemical assay at 37 C for 15 minutes on partially purified E. coli extracts): only when the fasA cosmid (FA) and the pSU19/ppt1 (P) construct were both present was there any measurable fasA activity
